Laboratory results as given in patent US20250066460A1.

Molecular target: complement C1s (UniProt P09871)
Test: cell-based or functional assay

Sequence of UniProt P09871 (P09871 16-688 limits assumed): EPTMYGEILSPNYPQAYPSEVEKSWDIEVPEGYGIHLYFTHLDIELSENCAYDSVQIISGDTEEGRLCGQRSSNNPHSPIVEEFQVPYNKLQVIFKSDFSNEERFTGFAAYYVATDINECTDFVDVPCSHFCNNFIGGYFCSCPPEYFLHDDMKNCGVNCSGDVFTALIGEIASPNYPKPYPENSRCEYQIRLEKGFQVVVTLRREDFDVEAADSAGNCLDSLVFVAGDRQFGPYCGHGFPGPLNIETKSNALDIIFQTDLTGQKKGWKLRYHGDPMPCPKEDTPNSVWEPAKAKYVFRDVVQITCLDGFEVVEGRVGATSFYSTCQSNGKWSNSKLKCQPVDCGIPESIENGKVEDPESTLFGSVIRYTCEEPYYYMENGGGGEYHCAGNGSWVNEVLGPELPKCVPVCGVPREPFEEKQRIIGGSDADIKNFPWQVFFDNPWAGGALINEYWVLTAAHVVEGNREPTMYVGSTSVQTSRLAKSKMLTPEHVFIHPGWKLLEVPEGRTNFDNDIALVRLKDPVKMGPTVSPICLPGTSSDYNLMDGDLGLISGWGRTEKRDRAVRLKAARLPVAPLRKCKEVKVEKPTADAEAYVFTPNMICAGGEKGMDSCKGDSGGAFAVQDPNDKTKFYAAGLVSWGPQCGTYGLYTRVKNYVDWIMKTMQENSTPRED

Substance: TNT009 (antibody)
- concentration blocking C3 fixation on sNF02.2 Schwann cells opsonized with MMN-patient serum (flow cytometry): 53 µg/mL
- lowest concentration blocking C3 deposition on fixed iPSC-derived motor neurons (titration 3-200 µg/mL): 12 µg/mL
